# Laboratory results published in patent publication US20230220399.
# Like-named read-outs stand apart in the source and are kept apart here.
# What was measured:
# [1] = molecular target: transferrin (TF) (Homo sapiens) (UniProt P02787); conditions: ELISA, SB18, 37 C
# KRAS G12D G12D, P01116-2 [2] = conditions: ELISA, SB18, 37 C
# [3] = molecular target: transferrin (TF) (Homo sapiens) (UniProt P02787); conditions: Nap-dU at n (6) positions; ELISA, SB18, 37 C
# KRAS G12D G12D, P01116-2 [4] = conditions: Nap-dU at n (6) positions; ELISA, SB18, 37 C
# KRAS G12C G12C, P01116-2 = conditions: Nap-dU at n (6) positions [4,9,13,19,26,27,28,30,39]; ELISA, SB18, 37 C; text p364 misprints unit/protein
# [5] = molecular target: human serum albumin (HSA) (Homo sapiens) (UniProt P02768); conditions: ELISA, SB18, 37 C
# KRAS G12D G12D, P01116-2 [6] = assay: BLI; conditions: Nap-dU at n (6) positions [4,9,13,19,26,27,28,30,39]; SB18, 37 C, immobilised biotin ligand
# KRAS G12V G12V, P01116-2 = conditions: Nap-dU at n (6) positions [28,30,39,40,41,45,46,47,54,57]; ELISA, SB18, 37 C
# [7] = molecular target: CD3 delta/epsilon heterodimer (UniProt P04234+P07766); conditions: Nap-dU at n (6) positions [Nap-dU at 1,6,7,8,9,12,18,19,20,23,32]; ELISA, SB18, 37 C
# [8] = Nap-dU at n (6) positions [17,23,30,31,32,44]
# [9] = Nap-dU at n (6) positions [Nap-dU at 2,6,8,9,11,16,17,22,24,27,35]
# [10] = Nap-dU at n (6) positions [4,9,13,19,26,27,28,30,39]
# [11] = Nap-dU at n (6) positions [22,28,35,36,37,49]
# [12] = Nap-dU at n (6) positions [5,10,14,20,27,28,29,31,40]
# transferrin (TF) (Homo sapiens), sequence (P02787 20-698): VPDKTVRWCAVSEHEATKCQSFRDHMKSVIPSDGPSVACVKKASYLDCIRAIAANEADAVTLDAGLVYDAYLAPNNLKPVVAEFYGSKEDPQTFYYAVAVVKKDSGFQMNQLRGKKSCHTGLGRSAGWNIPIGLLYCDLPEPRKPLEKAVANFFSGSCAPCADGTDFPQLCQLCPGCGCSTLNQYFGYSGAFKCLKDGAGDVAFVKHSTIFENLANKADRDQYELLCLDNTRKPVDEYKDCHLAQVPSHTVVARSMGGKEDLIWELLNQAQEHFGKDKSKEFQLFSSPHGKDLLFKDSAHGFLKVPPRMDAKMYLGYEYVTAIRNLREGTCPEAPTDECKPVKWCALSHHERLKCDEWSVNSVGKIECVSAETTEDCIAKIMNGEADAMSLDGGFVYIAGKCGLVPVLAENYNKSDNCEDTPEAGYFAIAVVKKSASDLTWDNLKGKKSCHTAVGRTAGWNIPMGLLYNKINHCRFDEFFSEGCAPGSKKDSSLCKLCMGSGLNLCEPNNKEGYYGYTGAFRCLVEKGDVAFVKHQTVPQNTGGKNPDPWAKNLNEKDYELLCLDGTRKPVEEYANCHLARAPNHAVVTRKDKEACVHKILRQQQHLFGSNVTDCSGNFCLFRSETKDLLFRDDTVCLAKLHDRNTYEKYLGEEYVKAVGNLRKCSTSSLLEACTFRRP
# CD3 delta/epsilon heterodimer, sequence (P04234 22-105, stated change not applied, chain 1 of 2): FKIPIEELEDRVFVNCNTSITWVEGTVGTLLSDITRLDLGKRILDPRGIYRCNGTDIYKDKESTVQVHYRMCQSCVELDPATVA
# CD3 delta/epsilon heterodimer, sequence (P07766 23-126, stated change not applied, chain 2 of 2): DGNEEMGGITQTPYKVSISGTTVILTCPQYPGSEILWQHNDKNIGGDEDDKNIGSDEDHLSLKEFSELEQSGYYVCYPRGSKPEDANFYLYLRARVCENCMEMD
sequence,measurement,setting,value
ACCGTCTGCCTGAAAGTCCGGATGGCAGCTTTACAGGCAGAACTAACG [TD007],Kd,[1]; [8],431 nM
same,Kd,"KRAS G12D G12D, P01116-2 [2]; [8]",2120 nM
ATGCCTCTTCTGCAGTTACGGTGTGATCGCCCAATAGCAGCCAC [TD012],Kd,[1]; [9],14.9 nM
same,Kd,"KRAS G12D G12D, P01116-2 [2]; [9]",1310 nM
CAGGNCGAGCNGNACGCGNGNGNGACCNGAAGAC [TD013],Kd,[3],646 nM
same,Kd,"KRAS G12D G12D, P01116-2 [4]",1550 nM
GACTAGCATAAGTCCGGATGGCAGCTTTATGCCGACCAT [AD005],Kd,"KRAS G12D G12D, P01116-2 [2]; [10]",22.9 nM
same,Kd,"KRAS G12C G12C, P01116-2",2.5 nM
same,Kd,[5]; [10],122 nM
same,Kd,"KRAS G12D G12D, P01116-2 [6]",35.5 nM
GAGTGACCGTCTGCCTGAAAGTCCGGATGGCAGCTTTACAGGCAGAACTAACG [TD006],Kd,[1]; [11],968 nM
same,Kd,"KRAS G12D G12D, P01116-2 [2]; [11]",628 nM
GAGTGACCGTCTGCCTGAGCAGGAGGATGTGACACAACTTTGCATTTCAAGCCTGATCAGCCACACCACCAGCC [AV001],Kd,"KRAS G12V G12V, P01116-2",58 nM
same,Kd,"[5]; Nap-dU at n (6) positions [28,30,39,40,41,45,46,47,54,57]",11.2 nM
GGACTAGCATAAGTCCGGATGGCAGCTTTATGCCGACCAT [TD003],Kd,[1]; [12],141 nM
same,Kd,"KRAS G12D G12D, P01116-2 [2]; [12]",2720 nM
TGCCCTTTTAATCCGACTTTAATGGCCACGCTCAC [AA004],Kd,[7],10.2 nM
same,Kd,"[5]; Nap-dU at n (6) positions [Nap-dU at 1,6,7,8,9,12,18,19,20,23,32]",9.54 nM
